Here are results for one substance from US20060177432A1.

Holding throughout (test): cell-based or functional assay
Assay [1] deals with chymotrypsin.
The target in assay [2] is neuropsin.
The target of assay [3] is human α-thrombin (human) (UniProt P00734).

With “6xHis-PEBP (recombinant mouse PEBP with a 6xHis-tag at the N-terminus) (from UniProt P70296 2-187)”, the inhibition of amidolytic activity (chromogenic substrate, 405 nm) was 25% in assay [1], 70% in assay [2] and 55% in assay [3].
